Laboratory results: patent publication US20220282217A1 (BIONTECH US, published 2022)

B1: ALEEKKGNYV (peptide)
peptide: ALEEKKGNYV
notes: also called EGFRvIII (internal deletion)
B2: PLSDLLLEML (peptide)
peptide: PLSDLLLEML
notes: also called E5R1, Y537S (so in the source); ESR1, Y537S

How the values were obtained:
HLA-A02.01 [1] = target: HLA-A02.01 (human); assay: competition vs radiolabeled reference peptide on purified MHC I, gel filtration
Method: (§1) Peptides were incubated at varying concentrations with these complexes for 2 days, and the amount of remaining radiolabeled peptide bound to […] was measured using size exclusion gel-filtration.

HLA-A02.01 [2] = target: HLA-A02.01 (human); assay: pMHC-I complex dissociation at 37 C, 125I-b2m, half-life
Method: Briefly, synthetic genes encoding biotinylated MHC-I heavy and light chains are expressed in E. coli and purified from inclusion bodies using standard methods. […] These reactions are carried out in streptavidin coated microplates to bind the biotinylated MHC-I heavy chains to the surface and allow measurement of radiolabeled light chain to monitor complex formation. Dissociation is initiated by addition of higher concentrations of unlabeled light-chain and incubation at 37° C. Stability is defined as the length of time in hours it takes for half of the complexes to dissociate, as measured by scintillation counts.

[3] = target: T1, HLA class I molecule A02.01; assay: competition with radiolabeled reference peptide on purified MHC I
T1 construct: Purified MHC class I complex; also called HLA-A02:01
Method: as §1

Binder | IC50 (HLA-A02.01 [1]) [nM] | Stability (T1/2 (h)) (HLA-A02.01 [2]) [h] | IC50 [3] [nM]
SVCFFFFCYI (also called CNOT1(-1)) | 520 | – | –
GLSISCTTL (also called β2M, . . ; MPAV) | 114 | – | –
VLTVTSTDV (also called FGFR3: TACC3) | 295 | 1.1 | –
ILIRKAMTV (also called EPHB2(-1)) | 19.5 | – | –
AIQPVLWTT (also called GATA3 . . ; CSNH) | – | – | 8.1
ALWECSLPQA (also called MSH3(-1)) | – | – | 9
ITAFFLLDI (also called NDUFC2 (-KCDT14)(-1)) | – | – | 78.7
VLPEPHLAL (also called GATA3 . . ; CSNH) | – | – | 16
NVVPLCDLL (also called ESR1, Y537C) | 3030 | 0 | –
NVVPLSDLL (also called ESR1, Y537S) | 916 | 0 | –
NVVPLNDLL (also called ESR1, Y537N) | 2900 | 0 | –
ALAPTLTHM (also called MLL2, . . ; LSPH) | – | – | 59
GLLLEMLDA (also called ESR1, D538G) | 558 | 0.4 | –
B1 | 141 | 0 | –
YITAFFLLDI (also called NDUFC2 (-KCDT14)(-1)) | – | – | 64.5
PLYGLLLEM (also called ESR1, D538G) | 640 | 0.7 | –
ALFFFFFET (also called C15ORF40(+1)) | 471 | – | –
VQWRSLGSL (also called C15ORF40(+1)) | 4730 | – | –
ITAFFFCWI (also called NDUFC2 (-KCDT14)(+1)) | – | – | 7490
AQAGVQWRSL (also called C15ORF40(+1)) | 670 | – | –

Binder | IC50 (HLA-A02.01 [1]) [nM] | Stability (T1/2 (h)) (HLA-A02.01 [2]) [h] | IC50 [3] [nM]
LIMQLMPFGC (also called EGFR, T790M) | – | 0.4 | –
IIEFMTYGNL (also called ABL1, T315I) | 9700 | 0 | –
RLWHLLLQVT (also called MLL2, . . ; LSPH) | – | – | 50.9
TQISSATEYL (also called ABL1, M351T) | 2640 | 0 | –
ILLPEDTPPL (also called MSH6(+1)) | – | – | 6.7
MSVCFFFFSV (also called CNOT1(+1)) | 1710 | – | –
IIIEFMTYG (also called ABL1, T315I) | 779 | 0 | –
IIIEFMTYGN (also called ABL1, T315I) | – | 0 | –
FLSSWDYRRM (also called C15ORF40(+1)) | 324 | – | –
LIVSRTLLLV (also called MSH3(-1)) | – | – | 10900
FLLALWECS (also called MSH3(-1)) | – | – | 93.2
KQWSSVTSL (also called EIF2B3(-1)) | 26.5 | – | –
GVYTFLPST (also called ESR1, S463P) | 779 | 1.3 | –
LLQVTQTSFA (also called MLL2, . . ; LSPH) | – | – | 677
LLDILDTAGL (also called KRAS, Q61L) | – | – | 716
YIIIEFMTYG (also called ABL1, T315I) | 186 | 0 | –
LLPEDTPPL (also called MSH6(+1)) | – | – | 2.8
IVSRTLLLV (also called MSH3(-1)) | – | – | 12.7
NVVPLYGLL (also called ESR1, D538G) | 10500 | 0 | –
RLWHLLLQV (also called MLL2, . . ; LSPH) | – | – | 1.3

Binder | IC50 (HLA-A02.01 [1]) [nM] | Stability (T1/2 (h)) (HLA-A02.01 [2]) [h] | IC50 [3] [nM]
PLCDLLLEML (also called ESR1, Y537C) | 2010 | 0.9 | –
PLNDLLLEML (also called ESR1, Y537N) | 12000 | 0 | –
B2 | 6470 | 0 | –
FFFETKSCSV (also called C15ORF40(+1)) | 61.2 | – | –
FKLFSCLSFL (also called C15ORF40(+1)) | 663 | – | –
KLGGGQHGEV (also called ABL1, Y253H) | 387 | 0.4 | –
NVVPLCDLLL (also called ESR1, Y537C) | 1370 | 0 | –
NVVPLSDLLL (also called ESR1, Y537S) | 741 | 0 | –
NVVPLNDLLL (also called ESR1, Y537N) | 4190 | 0 | –
ILMELMAGG (also called ALK, L1196M) | 223 | 0.5 | –
LMELMAGGDL (also called ALK, L1196M) | 311 | 8.9 | –
VLQRFRFTHV (also called β2M, . . ; SQIS) | 107 | – | –
LQVTQTSFAL (also called MLL2, . . ; LSPH) | – | – | 718
CLIVSRTLLL (also called MSH3(-1)) | – | – | 2010
PLCDLLLEM (also called ESR1, Y537C) | 602 | 0.8 | –
PLNDLLLEM (also called ESR1, Y537N) | 151 | 4.2 | –
PLSDLLLEM (also called ESR1, Y537S) | 404 | 2.7 | –
ALAPTLTHML (also called MLL2, . . ; LSPH) | – | – | 39
FFFSVIFST (also called CNOT1(+1)) | 4560 | – | –
